Measured values: doi:10.1101/2024.11.20.624382, “Reconstitution of SPO11-dependent double-strand break formation” (bioRxiv, 2024)

B1: Flag-tagged mouse SPO11 (natural protein, UniProt Q9WTK8-1 1-396, looked up)
chain: MAFAPMGPEASFFDALDRHRASLLAMVKRGAGETPAGATRVASSSEVLTAIENIIQDIIKSLARNEVPAFTIDNRSSWENIMFDDSVGLRMIPQCTTRKIRSDSPKSVKKFALILKVLSMIYKLIQSDTYATKRDIYYTDSQLFGNQAAVDSAIDDISCMLKVPRRSLHVLSTSKGLIAGNLRYMEEDGTRVQCTCSATATAVPTNIQGMQHLITDAKFLLIVEKDATFQRLLDDNFCSRMSPCIMVTGKGVPDLNTRLLVKKLWDTFHIPVFTLVDADPYGIEIMCIYKYGSMSMSFEAHNLTIPTIRWLGLLPSDIQRLNIPKDSLIPLTKHDQMKLDSILKRPYITYQPLWKKELEMMADSKMKAEIQALTLLSSDYLSRVYLPNKLRFGGWI
notes: SPO11, mouse, b splicing isoform (includes exon 2), full-length optimized coding DNA; A TEV cleavage site stands between the Flag tag and SPO11; no cleavage is described; also called FlagSPO11; SPO11b; not shown: Flag, N-terminal, kept
B3: mouse TOP6BL (Topoisomerase VIB-like) (natural protein, UniProt J3QMY9-1 1-579, looked up)
chain: MERTALAVCEILRYLIIHWKCEAGTAKGTLLDGQLVISIEALRSKHLPDSLHCIITIASTRSVYGGLNFKKFLQEIQPALPRLSAKLALASEEGGRSQDASGIAPCQVTFEVDENSQSLMTDCLVIKHFLRKIIIVHHKLKFSFSVAVNGTLSAETFGAENEPTLRLDNGVTLVVGFQRYVSKPKLNWSEAHCSRIHPVLGHPAPLFIPDAKADTGLLGELTLTPAAALCPSPKGFSSQLCRISSVSIFLYGPLGLPLLSSDQDQPSTAVFRDTSYFIDWKKYNLFMVPNLDLNLDTQSVLPDVNYKAESPEGNQSQNMNAQGPALLLFLFVDFQSDVPVQQAKIWGLHTLLTAHLSAILSESRSTVQQSIQSAVDQVWQLYHHDAKTQQRLQASLSVAVNSIMSVLTGSTRSSFRKTCLQALEAADTQEFGVKLHRIFYDITQHQFLKHCSCDTEQHLTPEKNISAQNTKDQHKNIAQEFPEESIGQAENKRPKRGSPNHGREESRVLGSARDRSPPKSATRDRELTEVSLTARGSQTQAAHGRAQAAEAASPAGGLEDLWLQEVSNLSEWLNPGHRS
notes: TOP6BL, mouse, untagged, full-length optimized coding DNA

Experiments:
[1] = biological target: B3; experiment: mass photometry; Refeyn OneMP; 28 nM protein; 25 mM HEPES-NaOH pH 7.5, 150 mM NaCl, 2 mM DTT; with 5 mM ATP; settings: both partners purified
[2] = biological target: T1, SPO11 (beta isoform), WT, in complex with TOP6BL;TOP6BL (Mus musculus;Mus musculus, UniProt Q9WTK8;J3QMY9 1-396;1-579, |); experiment: EMSA; apparent Kd (first monomer complex); 5 mM Mg2+, 4 C, 50 mM NaCl; doubly bound complexes form; EMSA: 25 mM Tris-HCl pH 7.5, 100 mM NaCl, 5 mM MgCl2, 2 mM DTT, 7.5% glycerol, 1 mg/ml BSA, 0.1 nM DNA, 30 C 30 min; cleavage substrate: 25 mM HEPES-NaOH pH 7.5, 50 mM NaCl, 5 mM MgCl2, 2 mM DTT, 7.5% glycerol, 1 mg/ml BSA, 4 C 30 min; settings: protein: recombinant;recombinant; tags: N-terminal Flag-TEV;untagged; copies: 1;1; label: internal 32P (5'-labeled before ligation); closed dumbbell, 44 bp duplex, A4 loop at both ends
T1 sequence 1: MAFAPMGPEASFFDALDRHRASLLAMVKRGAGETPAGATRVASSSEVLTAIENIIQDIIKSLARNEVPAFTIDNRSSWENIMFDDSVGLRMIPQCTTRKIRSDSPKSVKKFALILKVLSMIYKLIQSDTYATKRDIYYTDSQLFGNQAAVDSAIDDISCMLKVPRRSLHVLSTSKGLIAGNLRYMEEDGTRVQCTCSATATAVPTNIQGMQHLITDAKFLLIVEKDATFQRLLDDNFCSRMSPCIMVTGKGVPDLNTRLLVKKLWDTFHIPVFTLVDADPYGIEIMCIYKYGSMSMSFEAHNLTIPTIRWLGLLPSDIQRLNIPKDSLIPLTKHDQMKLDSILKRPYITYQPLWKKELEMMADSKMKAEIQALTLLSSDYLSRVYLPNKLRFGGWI
T1 sequence 2: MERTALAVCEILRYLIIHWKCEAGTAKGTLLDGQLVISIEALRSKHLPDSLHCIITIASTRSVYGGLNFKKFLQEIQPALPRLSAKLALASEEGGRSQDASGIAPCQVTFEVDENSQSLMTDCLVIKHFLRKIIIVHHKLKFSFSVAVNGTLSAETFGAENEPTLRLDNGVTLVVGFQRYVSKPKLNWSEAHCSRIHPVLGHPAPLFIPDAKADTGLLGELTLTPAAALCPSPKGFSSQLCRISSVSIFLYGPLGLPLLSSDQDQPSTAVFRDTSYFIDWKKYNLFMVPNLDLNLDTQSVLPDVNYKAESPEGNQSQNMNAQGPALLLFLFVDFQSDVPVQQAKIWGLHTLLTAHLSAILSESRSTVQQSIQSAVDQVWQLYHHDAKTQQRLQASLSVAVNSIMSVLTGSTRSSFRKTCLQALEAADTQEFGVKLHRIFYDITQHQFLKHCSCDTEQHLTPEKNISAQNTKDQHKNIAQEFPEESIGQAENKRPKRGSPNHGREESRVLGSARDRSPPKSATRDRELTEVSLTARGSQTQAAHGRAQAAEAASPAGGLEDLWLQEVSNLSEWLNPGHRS

Flag-tagged mouse SPO11 = biological target: B1; experiment: SEC; Superdex 200 Increase 10/300 GL after anti-Flag M2 affinity purification of the co-expressed proteins; lysis buffer 25 mM HEPES-NaOH pH 7.5, 500 mM NaCl; settings: both partners purified

Binder: B1
- binding result [1]: binds

B2: oligonucleotide cleavage substrate, 44 bp duplex with A4 loops (structured_DNA)
DNA: CGGTTCAAAAGAACCGGAGCTGAATGAAGCCATACCAAACGACGAGCGTGACACAAAAGTGTCACGCTCGTCGTTTGGTATGGCTTCATTCAGCTC
modifications: circular, ligated by T4 DNA ligase
- Kd [2]: 1.8 nM

Binder: B3
- stoichiometry N (Flag-tagged mouse SPO11): 1
